According to US20250376511A1 (Sanofi, published 2025):
One block for each binder: values may come before it.

Key:
[1] = target: T1, Human active C1s (Complement Technology) (human, UniProt P09871 16-688); experiment: cell-based or functional assay
T1 sequence: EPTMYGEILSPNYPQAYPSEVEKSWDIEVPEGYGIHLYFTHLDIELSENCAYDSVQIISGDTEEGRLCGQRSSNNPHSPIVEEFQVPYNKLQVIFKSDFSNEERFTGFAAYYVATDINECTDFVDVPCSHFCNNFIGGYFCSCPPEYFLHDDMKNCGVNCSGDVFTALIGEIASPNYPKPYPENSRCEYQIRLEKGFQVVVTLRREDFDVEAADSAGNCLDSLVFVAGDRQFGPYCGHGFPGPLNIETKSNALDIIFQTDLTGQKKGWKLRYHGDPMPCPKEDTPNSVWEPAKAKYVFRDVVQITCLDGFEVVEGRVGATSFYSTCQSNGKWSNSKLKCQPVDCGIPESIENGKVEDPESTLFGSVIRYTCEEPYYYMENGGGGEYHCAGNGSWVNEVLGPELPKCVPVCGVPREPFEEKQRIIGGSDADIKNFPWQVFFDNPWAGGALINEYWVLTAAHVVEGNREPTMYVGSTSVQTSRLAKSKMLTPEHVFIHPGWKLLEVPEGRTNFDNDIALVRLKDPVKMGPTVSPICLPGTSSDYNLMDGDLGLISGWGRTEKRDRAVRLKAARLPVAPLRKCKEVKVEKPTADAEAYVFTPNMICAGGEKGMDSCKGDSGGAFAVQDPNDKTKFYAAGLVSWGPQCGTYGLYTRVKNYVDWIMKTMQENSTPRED

cynomolgus aC1s = target: T2, cynomolgus aC1s (cynomolgus, UniProt A0A2K5VQX9 16-685); experiment: affinity of bispecific purified from CHO cells (SPR; details not restated)
T2 construct: also called Cyno aC1s; caC1s
T2 sequence: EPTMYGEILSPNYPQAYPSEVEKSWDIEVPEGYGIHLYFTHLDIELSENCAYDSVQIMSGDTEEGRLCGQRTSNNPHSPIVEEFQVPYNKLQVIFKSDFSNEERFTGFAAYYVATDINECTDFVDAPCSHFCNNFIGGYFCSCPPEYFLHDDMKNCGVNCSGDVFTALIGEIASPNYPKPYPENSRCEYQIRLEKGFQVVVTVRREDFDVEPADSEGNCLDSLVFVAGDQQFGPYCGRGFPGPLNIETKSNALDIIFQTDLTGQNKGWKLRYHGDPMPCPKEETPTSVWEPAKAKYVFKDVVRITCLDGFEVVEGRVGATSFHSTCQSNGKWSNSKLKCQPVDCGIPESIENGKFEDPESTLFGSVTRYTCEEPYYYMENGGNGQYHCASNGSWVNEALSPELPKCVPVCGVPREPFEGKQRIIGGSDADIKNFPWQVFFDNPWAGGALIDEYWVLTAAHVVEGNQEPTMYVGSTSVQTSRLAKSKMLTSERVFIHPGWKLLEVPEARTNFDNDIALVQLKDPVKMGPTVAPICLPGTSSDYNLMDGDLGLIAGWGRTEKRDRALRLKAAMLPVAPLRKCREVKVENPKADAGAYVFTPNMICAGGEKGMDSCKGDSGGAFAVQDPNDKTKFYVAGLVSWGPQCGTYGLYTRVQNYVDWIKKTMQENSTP

cynomolgus TfR = target: T3, cynomolgus TfR (cynomolgus, UniProt H9EXL1 89-760 (rhesus entry)); experiment: as above
T3 construct: also called Cyno TfR; cTfR
T3 sequence (chain, as listed by the source): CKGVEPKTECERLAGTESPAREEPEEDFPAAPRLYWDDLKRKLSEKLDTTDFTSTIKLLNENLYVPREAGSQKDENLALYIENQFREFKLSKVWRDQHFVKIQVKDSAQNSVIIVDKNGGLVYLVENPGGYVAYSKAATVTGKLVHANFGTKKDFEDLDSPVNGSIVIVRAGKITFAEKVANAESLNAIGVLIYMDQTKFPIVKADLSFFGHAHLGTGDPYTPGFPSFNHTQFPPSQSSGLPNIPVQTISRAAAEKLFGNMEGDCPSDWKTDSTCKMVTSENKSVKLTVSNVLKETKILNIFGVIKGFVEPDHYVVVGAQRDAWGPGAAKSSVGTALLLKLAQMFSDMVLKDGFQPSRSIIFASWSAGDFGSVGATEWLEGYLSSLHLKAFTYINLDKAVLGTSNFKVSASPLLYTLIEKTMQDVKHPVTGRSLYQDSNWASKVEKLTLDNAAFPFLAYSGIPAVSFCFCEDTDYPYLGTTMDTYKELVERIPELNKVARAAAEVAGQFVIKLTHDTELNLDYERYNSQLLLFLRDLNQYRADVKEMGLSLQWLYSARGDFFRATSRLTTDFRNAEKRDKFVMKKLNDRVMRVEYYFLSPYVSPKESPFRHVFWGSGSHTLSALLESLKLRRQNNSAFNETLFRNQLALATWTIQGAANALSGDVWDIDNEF

[2] = target: T4, His-tagged recombinant human TfR (produced in-house) (human, UniProt P02786 89-760); experiment: as above
T4 construct: also called hTfR; transferrin receptor 1
T4 sequence (P02786 89-760 limits assumed): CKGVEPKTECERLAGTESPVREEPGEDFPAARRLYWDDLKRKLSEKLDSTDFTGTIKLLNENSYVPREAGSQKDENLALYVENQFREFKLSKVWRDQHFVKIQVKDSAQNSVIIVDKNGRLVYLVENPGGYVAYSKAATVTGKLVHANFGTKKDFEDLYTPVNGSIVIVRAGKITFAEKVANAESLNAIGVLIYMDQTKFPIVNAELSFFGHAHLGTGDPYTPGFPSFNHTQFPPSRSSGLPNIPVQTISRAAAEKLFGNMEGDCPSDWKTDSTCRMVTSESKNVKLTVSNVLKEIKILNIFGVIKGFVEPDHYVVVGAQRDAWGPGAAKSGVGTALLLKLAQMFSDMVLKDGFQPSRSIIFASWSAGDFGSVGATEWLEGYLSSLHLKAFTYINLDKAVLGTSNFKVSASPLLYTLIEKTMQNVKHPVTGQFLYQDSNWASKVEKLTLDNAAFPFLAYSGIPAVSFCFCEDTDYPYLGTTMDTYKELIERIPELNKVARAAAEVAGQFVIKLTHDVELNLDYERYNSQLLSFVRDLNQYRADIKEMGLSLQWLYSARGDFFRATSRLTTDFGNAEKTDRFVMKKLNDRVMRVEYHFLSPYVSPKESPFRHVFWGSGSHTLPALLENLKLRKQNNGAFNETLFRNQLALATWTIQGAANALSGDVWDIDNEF

[3] = target: T1, Human active C1s (Complement Technology); experiment: as above
[4] = target: T1, Human active C1s (Complement Technology); experiment: cell-based or functional assay; remark: listed apart in the source
[5] = target: T1, Human active C1s (Complement Technology); experiment: cell-based or functional assay; remark: listed apart in the source
[6] = target: T4, His-tagged recombinant human TfR …; experiment: SPR Biacore T200 (Table 2)
Experimental: TfR and C1s binding using surface plasmon resonance (SPR): Analysis of antibody binding to TfR was performed on a Biacore™ T200 instrument using anti-His capture at 25° C. Anti-His (Qiagen) was buffer exchanged into PBS pH 7.2, diluted to 25 μg/mL in 10 mM sodium acetate pH 4.0 and directly immobilized to a series S CM5 chip to a surface density of ˜10,000 RU using the amine coupling kit provided by Cytiva. His-tagged recombinant human TfR (produced in-house) was diluted in HBS-EP+ pH 7.4 running buffer (10 mM HEPES pH 7.4, 150 mM NaCl, 3 mM EDTA, 0.05% surfactant P20) and injected for 5 sec at 20 μL/min flowrate to obtain capture level of 20 RU. Antibodies were serially diluted 2-fold from 90 to 5.625 nM in running buffer and injected over the captured TfR for 3 min followed by 9 min dissociation in buffer at 30 μL/min. Each cycle was regenerated with 10 mM glycine pH 1.5. To measure C1s binding, anti-human Fc (Jackson) was directly immobilized to a CM5 chip using amine chemistry. Antibodies were diluted to 2.5 μg/mL in HBS-EP+ pH 7.4 and captured to the chip for 15 sec at 20 μL/min flowrate. Human active C1s (Complement Technology) was serially diluted 2-fold from 20 to 0.625 nM in running buffer and injected over the captured antibodies for 180 sec at 50 μL/min followed by 9 min dissociation in buffer. […]

[7] = target: T1, Human active C1s (Complement Technology); experiment: SPR Biacore T200, antibody captured on anti-human Fc, human active C1s as analyte, 1:1 fit
Experimental: (§1) TfR and C1s binding using surface plasmon resonance (SPR): Analysis of antibody binding to TfR was performed on a Biacore™ T200 instrument using anti-His capture at 25° C. Anti-His (Qiagen) was buffer exchanged into PBS pH 7.2, diluted to 25 μg/mL in 10 mM sodium acetate pH 4.0 and directly immobilized to a series S CM5 chip to a surface density of ˜10,000 RU using the amine coupling kit provided by Cytiva. His-tagged recombinant human TfR (produced in-house) was diluted in HBS-EP+ pH 7.4 running buffer (10 mM HEPES pH 7.4, 150 mM NaCl, 3 mM EDTA, 0.05% surfactant P20) and injected for 5 sec at 20 μL/min flowrate to obtain capture level of 20 RU. Antibodies were serially diluted 2-fold from 90 to 5.625 nM in running buffer and injected over the captured TfR for 3 min followed by 9 min dissociation in buffer at 30 μL/min. Each cycle was regenerated with 10 mM glycine pH 1.5. To measure C1s binding, anti-human Fc (Jackson) was directly immobilized to a CM5 chip using amine chemistry. Antibodies were diluted to 2.5 μg/mL in HBS-EP+ pH 7.4 and captured to the chip for 15 sec at 20 μL/min flowrate. Human active C1s (Complement Technology) was serially diluted 2-fold from 20 to 0.625 nM in running buffer and injected over the captured antibodies for 180 sec at 50 μL/min followed by 9 min dissociation in buffer. The bound complex was removed from the chip each cycle with 40 mM HCl and 0.85% phosphoric acid. Sensorgrams were processed using the Biacore™ Insight software and fit to a 1:1 binding model to obtain kinetic constants.
(§2) The six bispecific anti-aC1s/anti-TfR antibodies were first tested for their affinity for both TfR and aC1s via surface plasmon resonance (SPR) (Table 2).

[8] = target: T4, His-tagged recombinant human TfR …; experiment: hTfR affinity, SPR (method not restated for Table 1; same value as Table 2)
Experimental: as §1, §2

[9] = target: T1, Human active C1s (Complement Technology); experiment: cell-based or functional assay; remark: listed apart in the source
[10] = target: T4, His-tagged recombinant human TfR …; experiment: SPR Biacore T200, His-tagged human TfR captured on anti-His, antibody as analyte, 25 C, 1:1 fit
Experimental: as §1, §2

IC50, C3d deposition on neurons in iPSC tri-cultures with 3% serum [1]: 23.5 mg/L
Kd (cynomolgus aC1s): 0.248 nM
Kd (cynomolgus TfR): 43.7 nM
Kd [2]: 28.6 nM
Kd [3]: 3.31 nM
IC50, Wieslab Complement Pathway Assay [4]: 1.08 mg/L
IC90, Wieslab Complement Pathway Assay [4]: 7.6 mg/L
B1: bispecific anti-aC1s (L4)/anti-TfR (531v25.v6) IgG4 antibody (bispecific antibody)
heavy 1: QVQLVQSGAEVKKPGASVKLSCTASGFNIKDDYIHWVKEAPGQGLEWIGRIDPADGHTKYAPKFQVKVTITADTSTSTAYLELSSLRSEDTAVYYCARYGYGREVFDYWGQGTTVTVSSASTKGPSVFPLAPCSRSTSESTAALGCLVKDYFPEPVTVSWNSGALTSGVHTFPAVLQSSGLYSLSSVVEVPSSSLGTKTYTCNVDHKPSNTKVDERVESDYGPPCPPCPAPEFEGGPSVFLFPPKPKDTLMISRTPEVTCVVVDVSQEDPEVQFNWYVDGVEVHNAKTKPREEQFNSTYRVVSVLTVLHQDWLNGKEYKCKVSNKGLPSSIEKTISKAKGQPREPQVCTLPPSQEEMTKNQVSLSCAVKGFYPSDIAVEWESNGQPENNYKTTPPVLDSDGSFFLVSRLTVDKSRWQEGNVFSCSVLHEALHSRFTQKSLSLSLG
light 1: DIVMTQSPDSLAVSLGERATISCKSSQSVDYEGDSYLNWYQKKPGQPPKLLIYDASNLESGVPDRFSGSGSGTDFTLTISSLQAEDVAVYYCQQSNEDPWTFGQGTKVEIKRTVAAPAVFIFPPSKKQLKSGTASVVCLLKNFYPREAKVQWKVDNALQSGNSQESVTEQDSKDSTYSLSSTLTLSKADYEKHKVYACEVTHQGLSSPVTKSFNRGEC
heavy 2: QVQLVQSGAEVKKPGASVKVSCKASGYTFTRYYLNWVRKAPGQGLEWIGMIDPSVSETHYAQKFQGRATLTVDKSTSTAYMELSSLRSEDTAVYYCSQIRLPYYYAMDSWGQGTTVTVSSASTKGPSVFPLAPCSRSTSESTAALGCLVKDYFPEPVTVSWNSGALTSGVHTFPAVLQSSGLYSLSSVVTVPSSSLGTKTYTCNVDHKPSNTKVDKRVESKYGPPCPPCPAPEFEGGPSVFLFPPKPKDTLMISRTPEVTCVVVDVSQEDPEVQFNWYVDGVEVHNAKTKPREEQFNSTYRVVSVLTVLHQDWLNGKEYKCKVSNKGLPSSIEKTISKAKGQPREPQVYTLPPCQEEMTKNQVSLWCLVKGFYPSDIAVEWESNGQPENNYKTTPPVLDSDGSFFLYSRLTVDKSRWQEGNVFSCSVLHEALHSHYTQKSLSLSLG
light 2: DIQMTQSPSSLSASVGDRVTITCRASQDIESFLNWYQEKPGKAPKLLIYYTSRLQSGVPSRFSGSGSGTDYTLTISSLQPEDFATYYCQQGNTLPRTFGGGTKVEIKRTVAAPSVFIFPPSDEQLKSGTASVVCLLNNFYPREAKVQWKVDNALQSGNSQESVTEQDSKDSTYSLSSTLTLSKADYEKHKVYACEVTHQGLSSPVTKSFNRGEC
notes: Purified from CHO cells; monovalent for aC1s

IC50, C3d deposition on neurons in iPSC tricultures with serum [5]: 16.2 mg/L
fold higher affinity than the 531v25 and 531v25.v6 variants [6]: ~2 fold
Kd [7]: 0.79 nM
koff [7]: 0.00245 s⁻¹
kon [7]: 3.14e+06 M⁻¹ s⁻¹
Kd [8]: 9.65 nM
IC50, Wieslab Complement Pathway Assay (classical pathway, 1% NHS) [9]: 1.67 mg/L
Kd [10]: 9.65 nM
koff [10]: 0.00183 s⁻¹
kon [10]: 189000 M⁻¹ s⁻¹
B2: aC1s_088 × 531v23 IgG4-PE/dK (bispecific antibody, V domains shown)
VH 1: QVQLVQSGAEVKKPGASVKLSCTASGFNIKDDYIHWVKEAPGQGLEWIGRIDPADGHTKYAPKFQVKVTITADTSTSTAYLELSSLRSEDTAVYYCARYGYGREVFDYWGQGTTVTVSS
VL 1: DIVLTQSPDSLAVSLGERATISCKASQSVDYDGDSYMNWYQKKPGQPPKILIYDASNLESGIPARFSGSGSGTDFTLTISSLEPEDFAIYYCQQSNEDPWTFGGGTKVEIK
VH 2: QVQLVQSGAEVKKPGASVKVSCKASGYTFTRYYLNWVRKAPGQGLEWIGMIDPSVSETHYAQKFQGRATLTVDKSTSTAYMELSSLRSEDTAVYYCSQIRLPYYYAMDSWGQGTTVTVSS
VL 2: DIQMTQSPSSLSASVGDRVTITCRASQDISSFLNWYQEKPGKAPKLLIYYTSRLHSGVPSRFSGSGSGTDYTLTISSLQPEDFATYYCQQGNTLPRTFGGGTKVEIK
notes: IgG4-PE Fc, dK, with charge pairing mutations; The charge-mutated (starred) variable domains are used for both arms; also called aC1s_088-CM × 531v23 IgG4
